Patent publication US20240392013A1 (STELEXIS THERAPEUTICS, published 2024)
Changes are numbered by the printed parent chain. Blank lines part the entries; values can stand above or below the binder they belong to.

How the values were obtained:
[1] = target: T1, IL1RAP on HEK-Blue IL1β / HEK-Blue IL33 reporter cells (UniProt Q9NPH3 21-570, limits assumed); test: cell-based or functional assay
T1 sequence (looked up): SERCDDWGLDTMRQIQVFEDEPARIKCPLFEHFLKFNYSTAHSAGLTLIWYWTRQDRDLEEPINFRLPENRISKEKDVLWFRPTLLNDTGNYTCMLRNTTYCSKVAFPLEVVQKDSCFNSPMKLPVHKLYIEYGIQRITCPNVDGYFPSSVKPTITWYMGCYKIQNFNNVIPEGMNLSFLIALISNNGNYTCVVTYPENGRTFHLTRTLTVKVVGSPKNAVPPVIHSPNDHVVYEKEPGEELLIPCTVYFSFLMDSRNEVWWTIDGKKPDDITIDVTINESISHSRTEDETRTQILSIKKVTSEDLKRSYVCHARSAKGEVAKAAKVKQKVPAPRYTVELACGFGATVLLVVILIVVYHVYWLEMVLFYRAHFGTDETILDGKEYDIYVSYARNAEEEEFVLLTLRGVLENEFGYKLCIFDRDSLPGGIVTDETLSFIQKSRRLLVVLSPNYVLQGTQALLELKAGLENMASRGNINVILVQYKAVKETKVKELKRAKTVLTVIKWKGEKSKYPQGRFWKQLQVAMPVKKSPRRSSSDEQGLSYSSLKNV

[2] = target: T2, recombinant human IL1RAP protein, extracellular domain His-tagged (Sino Biological, Cat #10121-H08H) (human, UniProt Q9NPH3 21-367); test: cell-free ELISA, human IL1RAP coated at 1 µg/ml
T2 construct: extracellular domain; Bought protein; The Octet analyte is printed as huIL1RAP-His (Sino Biological, lot MB08MA1301) without a catalogue number; also called huIL1RAP-His; hIL1RAP; not shown: His tag
T2 sequence (looked up): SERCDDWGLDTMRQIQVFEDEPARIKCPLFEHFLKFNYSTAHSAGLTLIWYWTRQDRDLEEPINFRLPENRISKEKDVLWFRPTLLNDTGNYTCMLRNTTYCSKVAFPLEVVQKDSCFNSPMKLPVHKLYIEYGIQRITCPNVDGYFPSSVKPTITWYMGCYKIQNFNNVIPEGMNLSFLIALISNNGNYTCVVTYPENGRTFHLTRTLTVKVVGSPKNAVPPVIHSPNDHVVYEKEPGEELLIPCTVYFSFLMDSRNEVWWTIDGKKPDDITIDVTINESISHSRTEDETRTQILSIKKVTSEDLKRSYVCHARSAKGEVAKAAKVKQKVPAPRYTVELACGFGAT
Description: Recombinant human or mouse IL1RAP proteins (Sino Biological, Beijing, China; Cat #10121-H08H and Sino Biological, Cat #52657-M08H respectively) were diluted in PBS, pH 7.4 at concentration of 1 μg/ml, coated on high-binding 384-well clear plates and incubated overnight at 4° C. Following, plates were washed 3× with 0.05% Tween-20 in PBS, pH 7.5 and then blocked with 1% BSA in PBS for 1 hour at room temperature. After 3× washes, wells were incubated with each antibody at the highest concentration of 100 nM followed by seven serial half log dilutions (in 1% BSA and 0.05% Tween-20 in PBS) for 1 hour at room temperature. Plates were then washed 3× and incubated with […] detection antibody (Medna, TX, USA; Cat #D8212, 0.5 μg/ml diluted in 0.02% Tween-20 in PBS). After 5× washes, Supersignal ELISA Pico substrate (Thermofisher, MA, USA; Cat #37069) was applied to wells and chemiluminescent signal was read on Sprectramax L for 200 ms/well. Similarly, detection with specific κ and λ antibodies was conducted to define light chain isotyping.

[3] = target: T3, cyIL1RAP-His (Lake Pharma) (cynomolgus monkey, UniProt A0A2K5X5J5 21-367); test: Octet BLI; mAb captured on anti-mouse IgG Fc sensor; cyIL1RAP-His analyte
T3 construct: Bought protein (Lake Pharma, lot 16205819371); also called cynomolgus IL1RAP; monkey IL1RAP; not shown: His tag
T3 sequence: T2 sequence (looked up) with L183F, T273P, K326T
Procedure, shortened: (§1)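 Antibodies at 5 μg/ml were captured on anti-mouse IgG Fc biosensors; His-tagged human or cynomolgus IL1RAP extracellular domain served as analyte at 100, 50 and 25 nM in PBS kinetics buffer (0.1% BSA, 0.02% Tween-20). Association 120 s, dissociation 1200 s; KD (M) calculated from binding kinetics.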

[4] = target: T2, recombinant human IL1RAP protein, …; test: Octet BLI; mAb captured on anti-mouse IgG Fc sensor; huIL1RAP-His analyte
Procedure, shortened: as §1

- IC50, HEK-BlueIL1β NFκB Reporter Assay [1]: 1.31e-09 M (implied; unit not printed)
- Max % Inhibition at 200 nM, HEK-BlueIL1β NFκB Reporter Assay [1]: 100%
- EC50 [2]: 0.985 nM
- Kd [3]: 1.29 nM
- Response [3]: 0.328
- koff [3]: 0.000441 s⁻¹
- kon [3]: 342000 M⁻¹ s⁻¹
- Kd [4]: 0.934 nM
- Response [4]: 0.303
- koff [4]: 0.000287 s⁻¹
- kon [4]: 308000 M⁻¹ s⁻¹
B1: STLX2012 (antibody, V domains shown)
VH: QVQLLQSGAEVKKPGSSVKVSCKASGGTFSIYAIDWVRQAPGQGLEWMGGIIPIFGTANSAQKFQGRVTITADKSTSTAYMELSSLRSEDTAVYYCARNGATSDAFDMWGQGTMVTVSS
VL: EIVLTQSPGTLSLSPGERATLSCRASLSVSSNYLAWFQQRPGQAPRLLIHGVSRRATGIPDRFSGSGSGTDFTLTISRLEPEDFAVYYCQQYGSSPLTFGGGTKVEIK
notes: Purified from hybridoma of immunized Alivamab mice; intact IgG; captured on anti-mouse IgG Fc sensors in Octet; kappa light chain; also called 74804_12A21B

- IC50, HEK-BlueIL1β NFκB Reporter Assay [1]: 2.29e-09 M (implied; unit not printed)
- Max % Inhibition at 200 nM, HEK-BlueIL1β NFκB Reporter Assay [1]: 99%
- EC50 [2]: 1.04 nM
- Kd [3]: 0.97 nM
- Response [3]: 0.286
- koff [3]: 0.0004 s⁻¹
- kon [3]: 412000 M⁻¹ s⁻¹
- Kd [4]: 0.425 nM
- Response [4]: 0.251
- koff [4]: 0.000149 s⁻¹
- kon [4]: 350000 M⁻¹ s⁻¹
B2: STLX2043 (antibody, V domains shown)
VH: B1 VH with A58E, K63N, V68I, S77N, M108I, S118F
VL: B1 VL with H50Y
notes: Purified from hybridoma of immunized Alivamab mice; intact IgG; captured on anti-mouse IgG Fc sensors in Octet; kappa light chain; also called 74804_43F04A
